# Biological target: T1, Insulin-like Growth Factor II (IGF-II), recombinant human (human, UniProt P01344 25-91, biotinyl group (site not stated) when immobilised for SPR; not biotinylated as SPR analyte or in ITC)
# T1 construct: mature; Bought as Biotinyl-IGF-II from GroPep for immobilisation on streptavidin chips; also called IGF2; Biotinyl-IGF-II
# Test: SPR, steady-state KD relative to wild type domain 11
# Experimental: […]. Values are the mean±S.E.M. of three separate experiments.
# Kinetic analysis by Surface Plasmon Resonance (SPR) was conducted on a BIAcore 3000 biosensor (BIAcore, Uppsala, Sweden) at 25° C. in HBS-EP (10 mM HEPES, pH 7.4, 150 mM NaCl, 3 mM EDTA, 0.005% surfactant P20) at a flow rate of 40 μl/min. […] Kinetic experiments consisted of a two minute injection of analyte followed by a 100s dissociation phase in running buffer, after which the binding surface was regenerated with a 2 minute injection of 2 M MgCl₂. A blank flow cell was used for in-line reference subtraction of changes due to differences in refractive index of running buffer versus sample and a buffer-only injection was used to subtract instrument noise and drift. Injections were performed in duplicate for each concentration and in a randomised order. Kinetic parameters were determined by global fitting of sensorgrams to a two-state (conformational change) binding model using BIAevaluation software version 4.0.1. In all cases the minor component made an insignificant contribution to the overall affinity and as such only the kinetic parameters of the major binding component were used. For each interaction the dissociation affinity constant (KD) was also calculated by fitting of the response of each concentration at equilibrium to a steady-state affinity model using BIAevaluation. In order to investigate the influence of ionic strength, kinetic experiments were conducted in HBS-EP running buffers containing the desired NaCl concentration. In each case, analyte samples were made up in the appropriate running buffer prior to injection.
# Following purification, the binding of each mutant construct to IGF2 was assessed by SPR and compared to the wild type domain 11.
# T1 sequence (P01344 25-91): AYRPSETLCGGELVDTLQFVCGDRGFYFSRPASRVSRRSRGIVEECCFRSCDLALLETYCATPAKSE
row,Binder,Relative Affinity
1,"IGF2R domain 11 G1619R (common human polymorphism) (receptor, Secreted from Pichia pastoris) NEHDDCQVTNPSTGHLFDLSSLSGRAGFTAAYSEKGLVYMSICGENENCPPGVGACFGQTRISVGKANKRLRYVDQVLQLVYKDGSPCPSKSGLSYKSVISFVCRPEARPTNRPMLISLDKQTCTLFFSWHTPLACEQATHHHHHH",0.9 fold vs wild type domain 11
2,"IGF2R domain 11 Y1542A (receptor, Secreted from Pichia pastoris) NEHDDCQVTNPSTGHLFDLSSLSGRAGFTAAASEKGLVYMSICGENENCPPGVGACFGQTRISVGKANKRLRYVDQVLQLVYKDGSPCPSKSGLSYKSVISFVCRPEAGPTNRPMLISLDKQTCTLFFSWHTPLACEQATHHHHHH",0.16 fold vs wild type domain 11
3,"IGF2R domain 11 S1543A (receptor, Secreted from Pichia pastoris) NEHDDCQVTNPSTGHLFDLSSLSGRAGFTAAYAEKGLVYMSICGENENCPPGVGACFGQTRISVGKANKRLRYVDQVLQLVYKDGSPCPSKSGLSYKSVISFVCRPEAGPTNRPMLISLDKQTCTLFFSWHTPLACEQATHHHHHH",0.39 fold vs wild type domain 11
4,"IGF2R domain 11 T1570A (receptor, Secreted from Pichia pastoris) NEHDDCQVTNPSTGHLFDLSSLSGRAGFTAAYSEKGLVYMSICGENENCPPGVGACFGQARISVGKANKRLRYVDQVLQLVYKDGSPCPSKSGLSYKSVISFVCRPEAGPTNRPMLISLDKQTCTLFFSWHTPLACEQATHHHHHH",0.11 fold vs wild type domain 11
5,"IGF2R domain 11 K1545A (receptor, Secreted from Pichia pastoris) NEHDDCQVTNPSTGHLFDLSSLSGRAGFTAAYSEAGLVYMSICGENENCPPGVGACFGQTRISVGKANKRLRYVDQVLQLVYKDGSPCPSKSGLSYKSVISFVCRPEAGPTNRPMLISLDKQTCTLFFSWHTPLACEQATHHHHHH",0.36 fold vs wild type domain 11
6,"IGF2R domain 11 Q1569A (receptor, Secreted from Pichia pastoris) NEHDDCQVTNPSTGHLFDLSSLSGRAGFTAAYSEKGLVYMSICGENENCPPGVGACFGATRISVGKANKRLRYVDQVLQLVYKDGSPCPSKSGLSYKSVISFVCRPEAGPTNRPMLISLDKQTCTLFFSWHTPLACEQATHHHHHH",0.8 fold vs wild type domain 11
7,"IGF2R domain 11 S1596A (receptor, Secreted from Pichia pastoris) NEHDDCQVTNPSTGHLFDLSSLSGRAGFTAAYSEKGLVYMSICGENENCPPGVGACFGQTRISVGKANKRLRYVDQVLQLVYKDGAPCPSKSGLSYKSVISFVCRPEAGPTNRPMLISLDKQTCTLFFSWHTPLACEQATHHHHHH",0.61 fold vs wild type domain 11

# Biological target: T1, Insulin-like Growth Factor II (IGF-II), …
# Test: as above
# Remark: another data set of the same source
row,Binder,Relative Affinity
1,"IGF2R domain 11 with I at position 1544 (receptor, Secreted from Pichia pastoris; also called E1544I) NEHDDCQVTNPSTGHLFDLSSLSGRAGFTAAYSIKGLVYMSICGENENCPPGVGACFGQTRISVGKANKRLRYVDQVLQLVYKDGSPCPSKSGLSYKSVISFVCRPEAGPTNRPMLISLDKQTCTLFFSWHTPLACEQATHHHHHH",2.43 fold vs wild type domain 11
2,"IGF2R domain 11 with T at position 1544 (receptor, Secreted from Pichia pastoris; also called E1544T) NEHDDCQVTNPSTGHLFDLSSLSGRAGFTAAYSTKGLVYMSICGENENCPPGVGACFGQTRISVGKANKRLRYVDQVLQLVYKDGSPCPSKSGLSYKSVISFVCRPEAGPTNRPMLISLDKQTCTLFFSWHTPLACEQATHHHHHH",1.72 fold vs wild type domain 11
3,"IGF2R domain 11 with G at position 1544 (receptor, Secreted from Pichia pastoris; also called E1544G) NEHDDCQVTNPSTGHLFDLSSLSGRAGFTAAYSGKGLVYMSICGENENCPPGVGACFGQTRISVGKANKRLRYVDQVLQLVYKDGSPCPSKSGLSYKSVISFVCRPEAGPTNRPMLISLDKQTCTLFFSWHTPLACEQATHHHHHH",0.57 fold vs wild type domain 11
4,"IGF2R domain 11 with F at position 1544 (receptor, Secreted from Pichia pastoris; also called E1544F) NEHDDCQVTNPSTGHLFDLSSLSGRAGFTAAYSFKGLVYMSICGENENCPPGVGACFGQTRISVGKANKRLRYVDQVLQLVYKDGSPCPSKSGLSYKSVISFVCRPEAGPTNRPMLISLDKQTCTLFFSWHTPLACEQATHHHHHH",1.83 fold vs wild type domain 11
5,"IGF2R domain 11 with M at position 1544 (receptor, Secreted from Pichia pastoris; also called E1544M) NEHDDCQVTNPSTGHLFDLSSLSGRAGFTAAYSMKGLVYMSICGENENCPPGVGACFGQTRISVGKANKRLRYVDQVLQLVYKDGSPCPSKSGLSYKSVISFVCRPEAGPTNRPMLISLDKQTCTLFFSWHTPLACEQATHHHHHH",2.75 fold vs wild type domain 11
6,"IGF2R domain 11 with D at position 1544 (receptor, Secreted from Pichia pastoris; also called E1544D) NEHDDCQVTNPSTGHLFDLSSLSGRAGFTAAYSDKGLVYMSICGENENCPPGVGACFGQTRISVGKANKRLRYVDQVLQLVYKDGSPCPSKSGLSYKSVISFVCRPEAGPTNRPMLISLDKQTCTLFFSWHTPLACEQATHHHHHH",0.48 fold vs wild type domain 11
7,"IGF2R domain 11 with Y at position 1544 (receptor, Secreted from Pichia pastoris; also called E1544Y) NEHDDCQVTNPSTGHLFDLSSLSGRAGFTAAYSYKGLVYMSICGENENCPPGVGACFGQTRISVGKANKRLRYVDQVLQLVYKDGSPCPSKSGLSYKSVISFVCRPEAGPTNRPMLISLDKQTCTLFFSWHTPLACEQATHHHHHH",1.8 fold vs wild type domain 11
8,"IGF2R domain 11 with P at position 1544 (receptor, Secreted from Pichia pastoris; also called E1544P) NEHDDCQVTNPSTGHLFDLSSLSGRAGFTAAYSPKGLVYMSICGENENCPPGVGACFGQTRISVGKANKRLRYVDQVLQLVYKDGSPCPSKSGLSYKSVISFVCRPEAGPTNRPMLISLDKQTCTLFFSWHTPLACEQATHHHHHH",0.49 fold vs wild type domain 11
9,"IGF2R domain 11 with W at position 1544 (receptor, Secreted from Pichia pastoris; also called E1544W) NEHDDCQVTNPSTGHLFDLSSLSGRAGFTAAYSWKGLVYMSICGENENCPPGVGACFGQTRISVGKANKRLRYVDQVLQLVYKDGSPCPSKSGLSYKSVISFVCRPEAGPTNRPMLISLDKQTCTLFFSWHTPLACEQATHHHHHH",1.94 fold vs wild type domain 11
10,"IGF2R domain 11 with R at position 1544 (receptor, Secreted from Pichia pastoris; also called E1544R) NEHDDCQVTNPSTGHLFDLSSLSGRAGFTAAYSRKGLVYMSICGENENCPPGVGACFGQTRISVGKANKRLRYVDQVLQLVYKDGSPCPSKSGLSYKSVISFVCRPEAGPTNRPMLISLDKQTCTLFFSWHTPLACEQATHHHHHH",7.33 fold vs wild type domain 11
11,"IGF2R domain 11 with S at position 1544 (receptor, Secreted from Pichia pastoris; also called E1544S) NEHDDCQVTNPSTGHLFDLSSLSGRAGFTAAYSSKGLVYMSICGENENCPPGVGACFGQTRISVGKANKRLRYVDQVLQLVYKDGSPCPSKSGLSYKSVISFVCRPEAGPTNRPMLISLDKQTCTLFFSWHTPLACEQATHHHHHH",5.24 fold vs wild type domain 11
12,"IGF2R domain 11 with H at position 1544 (receptor, Secreted from Pichia pastoris; also called E1544H) NEHDDCQVTNPSTGHLFDLSSLSGRAGFTAAYSHKGLVYMSICGENENCPPGVGACFGQTRISVGKANKRLRYVDQVLQLVYKDGSPCPSKSGLSYKSVISFVCRPEAGPTNRPMLISLDKQTCTLFFSWHTPLACEQATHHHHHH",3.07 fold vs wild type domain 11
13,"IGF2R domain 11 with Q at position 1544 (receptor, Secreted from Pichia pastoris; also called E1544Q) NEHDDCQVTNPSTGHLFDLSSLSGRAGFTAAYSQKGLVYMSICGENENCPPGVGACFGQTRISVGKANKRLRYVDQVLQLVYKDGSPCPSKSGLSYKSVISFVCRPEAGPTNRPMLISLDKQTCTLFFSWHTPLACEQATHHHHHH",3.87 fold vs wild type domain 11
14,"IGF2R domain 11 with N at position 1544 (receptor, Secreted from Pichia pastoris; also called E1544N) NEHDDCQVTNPSTGHLFDLSSLSGRAGFTAAYSNKGLVYMSICGENENCPPGVGACFGQTRISVGKANKRLRYVDQVLQLVYKDGSPCPSKSGLSYKSVISFVCRPEAGPTNRPMLISLDKQTCTLFFSWHTPLACEQATHHHHHH",0.88 fold vs wild type domain 11
15,"IGF2R domain 11 with L at position 1544 (receptor, Secreted from Pichia pastoris; also called E1544L) NEHDDCQVTNPSTGHLFDLSSLSGRAGFTAAYSLKGLVYMSICGENENCPPGVGACFGQTRISVGKANKRLRYVDQVLQLVYKDGSPCPSKSGLSYKSVISFVCRPEAGPTNRPMLISLDKQTCTLFFSWHTPLACEQATHHHHHH",2.02 fold vs wild type domain 11
